Data as given in patent publication US11278600B2, “Human alpha-galactosidase variants” (Codexis, Inc., priority 2014, dated 2022).

Key:
Type in all cases: biochemical
[1] = HTP-analysis of supernatants pretreated with acid (MUGal hydrolysis); conditions: activity of the variant/activity of Rd4BB (SEQ ID NO: 15); challenge at pH 3.7
How it was run: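 Yeast INVSc1 supernatant, GLA variants; acid challenge: McIlvaine pH 3.3-4.3, 37° C., 1-3 h. Assay: MUGal in McIlvaine pH 4.8 plus citrate pH 4.3, 37° C., 30-180 min, Na2CO3 stop, Ex 355/Em 448 nm.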

[2] = HTP-analysis of yeast culture supernatants, no challenge (MUGal hydrolysis); conditions: activity of the variant/activity of Rd4BB (SEQ ID NO: 15)
How it was run: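 GLA variants expressed in yeast INVSc1, secreted into SD-Ura broth over 66-84 h at 30° C; clarified supernatants tested without challenge. Supernatant mixed with McIlvaine buffer pH 4.8 and 2 mM MUGal (citrate/KCl, pH 4.6), 37° C for 30-180 min, carbonate-quenched, fluorescence Ex 355/Em 448 nm.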

[3] = HTP-analysis of supernatants pretreated with base (MUGal hydrolysis); conditions: activity of the variant/activity of Rd4BB (SEQ ID NO: 15); challenge at pH 9.65
How it was run: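 Supernatants from INVSc1 yeast expressing GLA variants (SD-Ura, 66-84 h, 30° C) were mixed with McIlvaine buffer pH 7.0-8.2 or 200 mM sodium bicarbonate pH 9.1-9.7 and held 1-18 h at 37° C. Residual activity was then measured on MUGal at pH 4.8/4.3, 37° C, 30-180 min, by fluorescence (Ex 355/Em 448 nm).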

Molecule	Relative Activity of GLA Variants After Challenge at pH 3.7 [1]	Relative Activity of GLA Variants After No Challenge (NC) [2]	Relative Activity of GLA Variants After Challenge at pH 9.65 [3]
381 (protein, Synthetic Polypeptide sequence of Variant No. 381 of mature Human GLA) LDNGLARTPTMGWLHWERFMCNLDCQEEPDSCISEKLFMEMAERMVSEGWKDAGYEYLCIDDCWMAPQRDSEGRLQADPQRFPHGIRQLANSVHSKGLKLGIYADVGNKTCAGFPGSFGYYDIDAQTFADWGVDLLKFDGCYCDSLENLADGYKHMSLALNRTGRSIVYSCEWPLYMWPFQKPNYTEIRQYCNHWRNFADIDDSWKSIKSILDWTSRNQERIVDVAGPGGWNDPDMLVIGNFGLSWDQQVTQMALWAIMAAPLFMSNDLRHISPQAKALLQDKDVIAINQDPLGKQGYQLRKGDNFEVWERPLSGDAWAVAIINRQEIGGPRSYTIPVASLGKGVACNPACFITQLLPVKRQLGFYNWTSRLKSHINPTGTVLLQLENTMQMSLKDLL	+ (0.5 to 1.5 relative activity over Rd4BB (SEQ ID NO: 15))	+ (0.5 to 1.5 relative activity over Rd4BB (SEQ ID NO: 15))	− (<0.5 relative activity over Rd4BB (SEQ ID NO: 15))
383 (protein, Synthetic Polypeptide sequence of Variant No. 383 of mature Human GLA) LDNGLARTPTMGWLHWERFMCNLDCQEEPDSCISEKLFMEMAERMVSEGWKDAGYEYLCIDDCWMAPQRDSEGRLQADPQRFPHGIRQLANCVHSKGLKLGIYADVGNKTCAGFPGSFGYYDIDAQTFADWGVDLLKFDGCYCDSLENLADGYKHMSLALNRTGRSIVYSCEWPLYMWPFQKPNYTEIRQYCNHWRNFADIDDSWKSIKSILDWTSRNQERIVDVAGPGGWNDPDMLVIGNFGLSWDQQVTQMALWAIMAAPLFMSNDLRHISPQAKALLQDKDVIAINQDPLGKQGYQLRKGDNFEVWERPLSGDAWAVAIINRQEIGGPRSYTIPVASLGKGVACNPACFITQLLPVKRQLGFYNWTSRLKSHINPTGTVLLQLENTMQMSLKDLL	− (<0.5 relative activity over Rd4BB (SEQ ID NO: 15))	+ (0.5 to 1.5 relative activity over Rd4BB (SEQ ID NO: 15))	− (<0.5 relative activity over Rd4BB (SEQ ID NO: 15))
360 (protein, Synthetic Polypeptide sequence of Variant No. 360 of mature Human GLA) LDNGLARTPTMGWLHWERFMCNLDCQEEPDSCISEKLFMEMAEEMVSEGWKDAGYEYLCIDDCWMAPQRDSEGRLQADPQRFPHGIRQLANYVHSKGLKLGIYADVGNKTCAGFPGSFGYYDIDAQTFADWGVDLLKFDGCYCDSLENLADGYKHMSLALNRTGRSIVYSCEWPLYMWPFQKPNYTEIRQYCNHWRNFADIDDSWASIKSILDWTSRNQERIVDVAGPGGWNDPDMLVIGNFGLSWDQQVTQMALWAIMAAPLFMSNDLRHISPQAKALLQDKDVIAINQDPLGKQGYQLRKGDNFEVWERPLSGDAWAVAIINRQEIGGPRSYTIPVASLGKGVACNPACFITQLLPVKRQLGFYNWTSRLKSHINPTGTVLLQLENTMQMSLKDLL	+ (0.5 to 1.5 relative activity over Rd4BB (SEQ ID NO: 15))	+ (0.5 to 1.5 relative activity over Rd4BB (SEQ ID NO: 15))	+ (0.5 to 1.5 relative activity over Rd4BB (SEQ ID NO: 15))
384 (protein, Synthetic Polypeptide sequence of Variant No. 384 of mature Human GLA) LDNGLARTPTMGWLHWERFMCNLDCQEEPDSCISEKLFMEMAERMVSEGWKDAGYEYLCIDDCWMAPQRDSEGRLQADPQRFPHGIRQLANVVHSKGLKLGIYADVGNKTCAGFPGSFGYYDIDAQTFADWGVDLLKFDGCYCDSLENLADGYKHMSLALNRTGRSIVYSCEWPLYMWPFQKPNYTEIRQYCNHWRNFADIDDSWKSIKSILDWTSRNQERIVDVAGPGGWNDPDMLVIGNFGLSWDQQVTQMALWAIMAAPLFMSNDLRHISPQAKALLQDKDVIAINQDPLGKQGYQLRKGDNFEVWERPLSGDAWAVAIINRQEIGGPRSYTIPVASLGKGVACNPACFITQLLPVKRQLGFYNWTSRLKSHINPTGTVLLQLENTMQMSLKDLL	+ (0.5 to 1.5 relative activity over Rd4BB (SEQ ID NO: 15))	+ (0.5 to 1.5 relative activity over Rd4BB (SEQ ID NO: 15))	− (<0.5 relative activity over Rd4BB (SEQ ID NO: 15))
387 (protein, Synthetic Polypeptide sequence of Variant No. 387 of mature Human GLA) LDNGLARTPTMGWLHWERFMCNLDCQEEPDSCISEKLFMEMAERMVSEGWKDAGYEYLCIDDCWMAPQRDSEGRLQADPQRFPHGIRQLANYTHSKGLKLGIYADVGNKTCAGFPGSFGYYDIDAQTFADWGVDLLKFDGCYCDSLENLADGYKHMSLALNRTGRSIVYSCEWPLYMWPFQKPNYTEIRQYCNHWRNFADIDDSWKSIKSILDWTSRNQERIVDVAGPGGWNDPDMLVIGNFGLSWDQQVTQMALWAIMAAPLFMSNDLRHISPQAKALLQDKDVIAINQDPLGKQGYQLRKGDNFEVWERPLSGDAWAVAIINRQEIGGPRSYTIPVASLGKGVACNPACFITQLLPVKRQLGFYNWTSRLKSHINPTGTVLLQLENTMQMSLKDLL	+ (0.5 to 1.5 relative activity over Rd4BB (SEQ ID NO: 15))	+ (0.5 to 1.5 relative activity over Rd4BB (SEQ ID NO: 15))	− (<0.5 relative activity over Rd4BB (SEQ ID NO: 15))
386 (protein, Synthetic Polypeptide sequence of Variant No. 386 of mature Human GLA) LDNGLARTPTMGWLHWERFMCNLDCQEEPDSCISEKLFMEMAERMVSEGWKDAGYEYLCIDDCWMAPQRDSEGRLQADPQRFPHGIRQLANYVRSKGLKLGIYADVGNKTCAGFPGSFGYYDIDAQTFADWGVDLLKFDGCYCDSLENLADGYKHMSLALNRTGRSIVYSCEWPLYMWPFQKPNYTEIRQYCNHWRNFADIDDSWKSIKSILDWTSRNQERIVDVAGPGGWNDPDMLVIGNFGLSWDQQVTQMALWAIMAAPLFMSNDLRHISPQAKALLQDKDVIAINQDPLGKQGYQLRKGDNFEVWERPLSGDAWAVAIINRQEIGGPRSYTIPVASLGKGVACNPACFITQLLPVKRQLGFYNWTSRLKSHINPTGTVLLQLENTMQMSLKDLL	+ (0.5 to 1.5 relative activity over Rd4BB (SEQ ID NO: 15))	− (<0.5 relative activity over Rd4BB (SEQ ID NO: 15))	− (<0.5 relative activity over Rd4BB (SEQ ID NO: 15))
382 (protein, Synthetic Polypeptide sequence of Variant No. 382 of mature Human GLA) LDNGLARTPTMGWLHWERFMCNLDCQEEPDSCISEKLFMEMAERMVSEGWKDAGYEYLCIDDCWMAPQRDSEGRLQADPQRFPHGIRQLANYVNSKGLKLGIYADVGNKTCAGFPGSFGYYDIDAQTFADWGVDLLKFDGCYCDSLENLADGYKHMSLALNRTGRSIVYSCEWPLYMWPFQKPNYTEIRQYCNHWRNFADIDDSWKSIKSILDWTSRNQERIVDVAGPGGWNDPDMLVIGNFGLSWDQQVTQMALWAIMAAPLFMSNDLRHISPQAKALLQDKDVIAINQDPLGKQGYQLRKGDNFEVWERPLSGDAWAVAIINRQEIGGPRSYTIPVASLGKGVACNPACFITQLLPVKRQLGFYNWTSRLKSHINPTGTVLLQLENTMQMSLKDLL	− (<0.5 relative activity over Rd4BB (SEQ ID NO: 15))	− (<0.5 relative activity over Rd4BB (SEQ ID NO: 15))	− (<0.5 relative activity over Rd4BB (SEQ ID NO: 15))
385 (protein, Synthetic Polypeptide sequence of Variant No. 385 of mature Human GLA) LDNGLARTPTMGWLHWERFMCNLDCQEEPDSCISEKLFMEMAERMVSEGWKDAGYEYLCIDDCWMAPQRDSEGRLQADPQRFPHGIRQLANAVHSKGLKLGIYADVGNKTCAGFPGSFGYYDIDAQTFADWGVDLLKFDGCYCDSLENLADGYKHMSLALNRTGRSIVYSCEWPLYMWPFQKPNYTEIRQYCNHWRNFADIDDSWKSIKSILDWTSRNQERIVDVAGPGGWNDPDMLVIGNFGLSWDQQVTQMALWAIMAAPLFMSNDLRHISPQAKALLQDKDVIAINQDPLGKQGYQLRKGDNFEVWERPLSGDAWAVAIINRQEIGGPRSYTIPVASLGKGVACNPACFITQLLPVKRQLGFYNWTSRLKSHINPTGTVLLQLENTMQMSLKDLL	+ (0.5 to 1.5 relative activity over Rd4BB (SEQ ID NO: 15))	+ (0.5 to 1.5 relative activity over Rd4BB (SEQ ID NO: 15))	− (<0.5 relative activity over Rd4BB (SEQ ID NO: 15))
